In the supplement of paper PMC9112550, “Optimization of the antimicrobial peptide Bac7 by deep mutational scanning” (BMC Biology, 2022):

System: Escherichia coli TOP10
Assay: shrunken log2 fold change of peptide-encoding DNA abundance (4.5 h post-induction vs induction); higher = less antimicrobial activity (less host growth inhibition)
Conditions: time post-induction: 4.5 h; library: site-saturation at positions 5, 18, 19, 20
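Note: peptides expressed intracellularly from a pBAD plasmid library in pooled LB shake-flask culture, induced with 0.3% L-arabinose, DNA abundance read by NGS, three biological replicates, DESeq2 with apeglm shrinkage.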

Sequence | shrunken log2 fold change
RRIRYRPPRLPRPRPRPMERPRP | 0.0776
RRIRKRPPRLPRPRPRPECTPRP | 3.42
RRIRYRPPRLPRPRPRPFKLPRP | -0.0907
RRIRARPPRLPRPRPRPVEIPRP | 0.0505
RRIRSRPPRLPRPRPRPMFAPRP | 0.154
RRIRCRPPRLPRPRPRPYEKPRP | -0.0213
RRIRCRPPRLPRPRPRPQMNPRP | -0.416
RRIRHRPPRLPRPRPRPVHHPRP | -0.0583
RRIRDRPPRLPRPRPRPRGVPRP | 0.393
RRIRNRPPRLPRPRPRPKNMPRP | -0.189
RRIRFRPPRLPRPRPRPGTRPRP | 0.208
RRIRTRPPRLPRPRPRPKQHPRP | 0.119
RRIRGRPPRLPRPRPRPDSFPRP | 0.00128
RRIRLRPPRLPRPRPRPSVPPRP | -0.185
RRIRDRPPRLPRPRPRPSNIPRP | -0.182
RRIRCRPPRLPRPRPRPWKQPRP | -0.181
RRIRYRPPRLPRPRPRPISFPRP | -0.00256
RRIRQRPPRLPRPRPRPVCDPRP | 0.0934
RRIRFRPPRLPRPRPRPVILPRP | -1
RRIRIRPPRLPRPRPRPTFVPRP | -0.582
RRIRYRPPRLPRPRPRPFWNPRP | -0.178
RRIRWRPPRLPRPRPRPLHHPRP | -0.0749
RRIRYRPPRLPRPRPRPRPHPRP | -0.0677

Sequence | shrunken log2 fold change
RRIRKRPPRLPRPRPRPVYWPRP | -0.0795
RRIRNRPPRLPRPRPRPGINPRP | -0.253
RRIRQRPPRLPRPRPRPNRQPRP | 0.0872
RRIRARPPRLPRPRPRPKSMPRP | 0.0164
RRIRIRPPRLPRPRPRPSQGPRP | -0.0729
RRIRGRPPRLPRPRPRPRARPRP | 1.09
RRIRFRPPRLPRPRPRPLHMPRP | -1.06
RRIRPRPPRLPRPRPRPQAYPRP | -0.215
RRIRLRPPRLPRPRPRPMIVPRP | -0.199
RRIRWRPPRLPRPRPRPSEEPRP | 0.129
RRIRYRPPRLPRPRPRPAMEPRP | 0.0738
RRIRDRPPRLPRPRPRPEGGPRP | 0.966
RRIRERPPRLPRPRPRPTDSPRP | 0.0161
RRIRWRPPRLPRPRPRPLKQPRP | 0.206
RRIRDRPPRLPRPRPRPQQTPRP | -0.252
RRIRHRPPRLPRPRPRPDNHPRP | -0.323
RRIRMRPPRLPRPRPRPFWHPRP | -0.00226
RRIRWRPPRLPRPRPRPNVTPRP | -0.22
RRIRMRPPRLPRPRPRPAIEPRP | 0.112
RRIRMRPPRLPRPRPRPECMPRP | 2.53
RRIRHRPPRLPRPRPRPAGDPRP | 0.309
RRIRYRPPRLPRPRPRPRAGPRP | 0.461
RRIRRRPPRLPRPRPRPWPDPRP | 0.0719

Sequence | shrunken log2 fold change
RRIRHRPPRLPRPRPRPENHPRP | -0.235
RRIRGRPPRLPRPRPRPNMVPRP | -0.00462
RRIRERPPRLPRPRPRPKFRPRP | -0.315
RRIRERPPRLPRPRPRPKVRPRP | -0.0607
RRIRFRPPRLPRPRPRPENSPRP | -3.45e-05
RRIRIRPPRLPRPRPRPTAVPRP | 0.028
RRIRARPPRLPRPRPRPENIPRP | -0.251
RRIRHRPPRLPRPRPRPTDYPRP | 0.029
RRIRYRPPRLPRPRPRPPTHPRP | -0.251
RRIRSRPPRLPRPRPRPMHWPRP | -0.159
RRIRARPPRLPRPRPRPANLPRP | 0.177
RRIRSRPPRLPRPRPRPGIVPRP | 0.119
RRIRERPPRLPRPRPRPWATPRP | 0.127
RRIRARPPRLPRPRPRPQVLPRP | -0.0334
RRIRERPPRLPRPRPRPESYPRP | 0.0161
RRIRLRPPRLPRPRPRPLCRPRP | -0.496
RRIRSRPPRLPRPRPRPAWVPRP | 0.441
RRIRERPPRLPRPRPRPLMIPRP | -0.348
RRIRTRPPRLPRPRPRPCMGPRP | -0.247
RRIRNRPPRLPRPRPRPWMEPRP | -0.00208
RRIRHRPPRLPRPRPRPPVRPRP | 0.16
RRIRSRPPRLPRPRPRPYHGPRP | -0.397
RRIRRRPPRLPRPRPRPMDYPRP | 0.0716

Sequence | shrunken log2 fold change
RRIRMRPPRLPRPRPRPCINPRP | -0.0644
RRIRERPPRLPRPRPRPVIKPRP | -0.201
RRIRMRPPRLPRPRPRPGRAPRP | 1.27
RRIRFRPPRLPRPRPRPGYHPRP | -1.45
RRIRQRPPRLPRPRPRPGPAPRP | 0.114
RRIRCRPPRLPRPRPRPSHIPRP | -0.637
RRIRTRPPRLPRPRPRPHEFPRP | -0.175
RRIRWRPPRLPRPRPRPHCSPRP | -0.00908
RRIRYRPPRLPRPRPRPGSPPRP | -0.0883
RRIRCRPPRLPRPRPRPCEDPRP | -0.219
RRIRRRPPRLPRPRPRPENNPRP | 0.0497
RRIRSRPPRLPRPRPRPFRGPRP | -0.242
RRIRERPPRLPRPRPRPGLPPRP | -0.112
RRIRVRPPRLPRPRPRPSAAPRP | 0.298
RRIRIRPPRLPRPRPRPEQAPRP | 0.1
RRIRHRPPRLPRPRPRPRIGPRP | 0.172
RRIRVRPPRLPRPRPRPPYHPRP | -0.284
RRIRERPPRLPRPRPRPPTYPRP | -0.168
RRIRFRPPRLPRPRPRPSYLPRP | -0.736
RRIRMRPPRLPRPRPRPCIDPRP | 0.428
RRIRRRPPRLPRPRPRPKQSPRP | 0.143
RRIRTRPPRLPRPRPRPINTPRP | -0.687
